Experimental data reported in paper PMC1888729, “Control of Pre-mRNA Splicing by the General Splicing Factors PUF60 and U2AF^65” (PLoS ONE, 2007).

Tests used:
[1] = biological target: the molecule itself; assay: SDS-PAGE and western blot; His-tagged PUF60 (~3.6 pmol) purified from HEK-293E cells, blot probed for PUF60
[2] = biological target: the molecule itself; assay: SDS-PAGE and western blot; heparin fraction of HeLa nuclear extract, blot probed for PUF60

Row | Protein | stoichiometry N [1] | stoichiometry N [2]
1 | His-tagged PUF60 (PUF60S, HEK-293E) (natural protein, human, UniProt Q9UHX1-2 1-542, looked up, PUF60S, the isoform of human PUF60 that lacks alternative exon 5; amplified from pGAD-GH-RoBPI-47,3 with the primers PUF60Hisstart and PUFresmutD; About 60% of the protein ran as an SDS-resistant dimer; also called recombinant PUF60; PUFS; source: HEK-293E, transiently transfected with pTT3-HisPUFS, purified (Ni-NTA agarose)) MATATIALQVNGQQGGGSEPAAAAAVVAAGDKWKPPQGTDSIKMENGQSTAAKLGLPPLTPEQQEALQKAKKYAMEQSIKSVLVKQTIAHQQQQLTNLQMAAQRQRALAIMCRVYVGSIYYELGEDTIRQAFAPFGPIKSIDMSWDSVTMKHKGFAFVEYEVPEAAQLALEQMNSVMLGGRNIKVGRPSNIGQAQPIIDQLAEEARAFNRIYVASVHQDLSDDDIKSVFEAFGKIKSCTLARDPTTGKHKGYGFIEYEKAQSSQDAVSSMNLFDLGGQYLRVGKAVTPPMPLLTPATPGGLPPAAAVAAAAATAKITAQEAVAGAAVLGTLGTPGLVSPALTLAQPLGTLPQAVMAAQAPGVITGVTPARPPIPVTIPSVGVVNPILASPPTLGLLEPKKEKEEEELFPESERPEMLSEQEHMSISGSSARHMVMQKLLRKQESTVMVLRNMVDPKDIDDDLEGEVTEECGKFGAVNRVIIYQEKQGEEEDAEIIVKIFVEFSIASETHKAIQALNGRWFAGRKVVAEVYDQERFDNSDLSA | 2 | –
2 | PUF60 (endogenous, heparin fraction of HeLa nuclear extract) (natural protein, human (endogenous in HeLa), UniProt Q9UHX1 1-559, looked up, PUF60 of HeLa nuclear extract; Seen as a monomer and as an SDS-resistant dimer; also called FIR; RoBP1; source: endogenous, HeLa nuclear extract, fractionated (20-40% ammonium sulfate, CsCl gradient, Poros heparin column)) MATATIALQVNGQQGGGSEPAAAAAVVAAGDKWKPPQGTDSIKMENGQSTAAKLGLPPLTPEQQEALQKAKKYAMEQSIKSVLVKQTIAHQQQQLTNLQMAAVTMGFGDPLSPLQSMAAQRQRALAIMCRVYVGSIYYELGEDTIRQAFAPFGPIKSIDMSWDSVTMKHKGFAFVEYEVPEAAQLALEQMNSVMLGGRNIKVGRPSNIGQAQPIIDQLAEEARAFNRIYVASVHQDLSDDDIKSVFEAFGKIKSCTLARDPTTGKHKGYGFIEYEKAQSSQDAVSSMNLFDLGGQYLRVGKAVTPPMPLLTPATPGGLPPAAAVAAAAATAKITAQEAVAGAAVLGTLGTPGLVSPALTLAQPLGTLPQAVMAAQAPGVITGVTPARPPIPVTIPSVGVVNPILASPPTLGLLEPKKEKEEEELFPESERPEMLSEQEHMSISGSSARHMVMQKLLRKQESTVMVLRNMVDPKDIDDDLEGEVTEECGKFGAVNRVIIYQEKQGEEEDAEIIVKIFVEFSIASETHKAIQALNGRWFAGRKVVAEVYDQERFDNSDLSA | – | 2
